Experimental data reported in publication PMC9482650, “Quantitative fragmentomics allow affinity mapping of interactomes” (Nature Communications, 2022).

Tests used:
Experiment in all cases: holdup assay
Design in all cases: key: below the threshold = too weak to quantify, mostly under pKd 3.1 to 4
Conditions in all cases: plain residues with an end cap or a label only (N-terminal biotin on a linker: ado-ado)
[1] = target: GRIP2_7, Q9C0E4
[2] = target: IL16_4, Q14005
[3] = target: FRMPD3, Q5JV73
[4] = target: TJP1_2, Q07157
[5] = target: DLG2_3, Q15700
[6] = target: T1, APBA2_2, Q99767
T1 sequence (Q99767 654-744, limits assumed, looked up): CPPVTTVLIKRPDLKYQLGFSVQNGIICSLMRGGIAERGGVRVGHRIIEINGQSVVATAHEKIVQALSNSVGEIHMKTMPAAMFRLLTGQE

[7] = target: T2, LIN7C, Q9NUP9
T2 sequence (Q9NUP9 88-185, limits assumed, looked up): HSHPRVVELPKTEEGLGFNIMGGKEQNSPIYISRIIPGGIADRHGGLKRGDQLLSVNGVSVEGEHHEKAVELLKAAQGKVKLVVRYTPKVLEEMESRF

[8] = target: MAGI1_1, Q96QZ7
[9] = target: DLG4_3, P78352
[10] = target: GORASP1, Q9BQQ3
[11] = target: GRASP, Q7Z6J2
[12] = target: T3, PDZRN3_1, Q9UPQ7
T3 sequence (Q9UPQ7 244-349, limits assumed, looked up): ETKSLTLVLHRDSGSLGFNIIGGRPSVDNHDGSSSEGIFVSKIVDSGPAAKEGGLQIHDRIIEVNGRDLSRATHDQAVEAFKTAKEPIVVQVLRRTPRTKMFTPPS

[13] = target: LDB3, O75112
[14] = target: HTRA1, Q92743
[15] = target: LAP2, Q96RT1
[16] = target: GOPC, Q9HD26
[17] = target: T4, ARHGAP21, Q5T5U3
T4 sequence (Q5T5U3 45-169, limits assumed, looked up): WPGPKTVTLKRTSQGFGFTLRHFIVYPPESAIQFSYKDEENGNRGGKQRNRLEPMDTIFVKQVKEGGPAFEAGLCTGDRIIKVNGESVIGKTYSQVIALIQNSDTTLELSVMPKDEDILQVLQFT

[18] = target: Inadl_8, Q8NI35
[19] = target: LNX1_1, Q8TBB1
[20] = target: T5, HTRA4, P83105
T5 sequence (P83105 378-476, limits assumed, looked up): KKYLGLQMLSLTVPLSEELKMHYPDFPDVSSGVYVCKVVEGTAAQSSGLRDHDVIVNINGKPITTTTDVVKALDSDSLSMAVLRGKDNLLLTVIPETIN

[21] = target: GRIP2_4, Q9C0E4
[22] = target: MAGI2_2, Q86UL8
[23] = target: MAGI2_5, Q86UL8
[24] = target: MAGI2_3, Q86UL8
[25] = target: DLG4_1, P78352
[26] = target: PDLIM1, O00151
[27] = target: FRMPD4, Q14CM0
[28] = target: IL16_3, Q14005
[29] = target: T6, LNX2_2, Q8N448
T6 sequence (Q8N448 334-432, limits assumed, looked up): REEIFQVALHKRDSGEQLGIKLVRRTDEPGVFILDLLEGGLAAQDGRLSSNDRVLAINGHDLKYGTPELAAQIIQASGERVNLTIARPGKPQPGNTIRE

[30] = target: Inadl_4, Q8NI35
[31] = target: Inadl_5, Q8NI35
[32] = target: DLG1_2, Q12959
[33] = target: DLG4_2, P78352
Sequence of DLG4_2, P78352 (P78352 155-259): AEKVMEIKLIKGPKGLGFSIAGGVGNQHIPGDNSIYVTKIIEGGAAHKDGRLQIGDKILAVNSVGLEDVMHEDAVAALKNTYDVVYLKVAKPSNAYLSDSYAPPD

Sequence of FRMPD4, Q14CM0 (Q14CM0 67-160): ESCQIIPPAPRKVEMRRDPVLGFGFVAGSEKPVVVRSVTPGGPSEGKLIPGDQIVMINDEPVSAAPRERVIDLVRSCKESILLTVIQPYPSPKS
Sequence of PDLIM1, O00151 (O00151 1-87): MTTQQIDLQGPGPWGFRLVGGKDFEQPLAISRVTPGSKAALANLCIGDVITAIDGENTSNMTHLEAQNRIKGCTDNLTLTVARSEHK
Sequence of GRIP2_4, Q9C0E4 (Q9C0E4 446-548): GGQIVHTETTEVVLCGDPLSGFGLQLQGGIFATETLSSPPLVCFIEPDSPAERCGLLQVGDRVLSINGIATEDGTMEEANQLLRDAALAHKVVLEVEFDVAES
Sequence of HTRA1, Q92743 (Q92743 360-477): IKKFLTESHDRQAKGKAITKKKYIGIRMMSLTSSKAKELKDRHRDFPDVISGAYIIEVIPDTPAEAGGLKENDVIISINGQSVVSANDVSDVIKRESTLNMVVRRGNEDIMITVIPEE
Sequence of TJP1_2, Q07157 (Q07157 181-274): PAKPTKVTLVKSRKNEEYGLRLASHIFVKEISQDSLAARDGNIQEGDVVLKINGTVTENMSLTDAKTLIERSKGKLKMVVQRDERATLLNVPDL
Sequence of GRIP2_7, Q9C0E4 (Q9C0E4 934-1023): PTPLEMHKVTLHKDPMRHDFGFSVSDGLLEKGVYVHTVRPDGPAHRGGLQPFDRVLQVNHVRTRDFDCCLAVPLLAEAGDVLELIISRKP
Sequence of MAGI2_5, Q86UL8 (Q86UL8 915-1017): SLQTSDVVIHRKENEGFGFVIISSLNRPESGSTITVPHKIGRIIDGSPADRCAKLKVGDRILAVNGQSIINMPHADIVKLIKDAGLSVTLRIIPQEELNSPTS
Sequence of Inadl_8, Q8NI35 (Q8NI35 1425-1530): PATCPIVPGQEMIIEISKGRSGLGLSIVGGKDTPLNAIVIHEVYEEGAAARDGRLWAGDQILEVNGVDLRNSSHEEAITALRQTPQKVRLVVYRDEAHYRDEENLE
Sequence of MAGI2_3, Q86UL8 (Q86UL8 600-682): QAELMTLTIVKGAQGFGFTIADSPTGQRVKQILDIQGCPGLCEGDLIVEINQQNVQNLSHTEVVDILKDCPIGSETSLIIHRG
Sequence of DLG4_3, P78352 (P78352 306-403): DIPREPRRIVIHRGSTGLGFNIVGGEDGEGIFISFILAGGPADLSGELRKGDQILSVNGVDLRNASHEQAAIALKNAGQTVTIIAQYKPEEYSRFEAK
Sequence of DLG4_1, P78352 (P78352 62-152): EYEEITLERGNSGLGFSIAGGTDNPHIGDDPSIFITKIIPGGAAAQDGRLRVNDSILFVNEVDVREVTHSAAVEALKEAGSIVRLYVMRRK
Sequence of LNX1_1, Q8TBB1 (Q8TBB1 261-371): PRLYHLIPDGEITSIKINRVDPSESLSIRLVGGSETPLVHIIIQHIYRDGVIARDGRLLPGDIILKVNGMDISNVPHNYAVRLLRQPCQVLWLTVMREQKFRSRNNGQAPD
Sequence of LDB3, O75112 (O75112 1-94): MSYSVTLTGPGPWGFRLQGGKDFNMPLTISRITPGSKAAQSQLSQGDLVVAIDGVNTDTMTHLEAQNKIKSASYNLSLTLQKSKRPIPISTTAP
Sequence of IL16_3, Q14005 (Q14005 1107-1207): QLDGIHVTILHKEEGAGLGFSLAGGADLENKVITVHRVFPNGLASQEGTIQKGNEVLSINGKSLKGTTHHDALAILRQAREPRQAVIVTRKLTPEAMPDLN
Sequence of MAGI1_1, Q96QZ7 (Q96QZ7 1-106): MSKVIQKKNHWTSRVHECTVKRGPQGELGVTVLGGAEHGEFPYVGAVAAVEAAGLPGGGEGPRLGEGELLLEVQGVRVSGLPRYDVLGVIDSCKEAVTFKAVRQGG
Sequence of MAGI2_2, Q86UL8 (Q86UL8 410-522): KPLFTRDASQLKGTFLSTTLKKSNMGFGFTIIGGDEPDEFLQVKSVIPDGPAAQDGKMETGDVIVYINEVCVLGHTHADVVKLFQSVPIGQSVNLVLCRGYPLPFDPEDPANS
Sequence of DLG1_2, Q12959 (Q12959 314-412): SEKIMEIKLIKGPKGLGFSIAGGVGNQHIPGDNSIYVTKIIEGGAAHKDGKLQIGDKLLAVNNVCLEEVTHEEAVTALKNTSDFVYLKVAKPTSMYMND
Sequence of GRASP, Q7Z6J2 (Q7Z6J2 96-193): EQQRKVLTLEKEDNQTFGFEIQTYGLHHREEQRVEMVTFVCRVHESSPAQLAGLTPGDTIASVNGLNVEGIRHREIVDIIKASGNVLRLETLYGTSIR
Sequence of LAP2, Q96RT1 (Q96RT1 other isoform, or with tags, fused parts or gaps): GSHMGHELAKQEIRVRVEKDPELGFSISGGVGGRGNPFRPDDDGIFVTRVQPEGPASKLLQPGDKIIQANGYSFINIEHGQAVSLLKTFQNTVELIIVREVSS
Sequence of FRMPD3, Q5JV73 (Q5JV73 12-100): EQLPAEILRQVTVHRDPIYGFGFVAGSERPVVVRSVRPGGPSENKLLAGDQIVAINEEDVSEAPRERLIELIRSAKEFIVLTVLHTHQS
Sequence of Inadl_5, Q8NI35 (Q8NI35 673-780): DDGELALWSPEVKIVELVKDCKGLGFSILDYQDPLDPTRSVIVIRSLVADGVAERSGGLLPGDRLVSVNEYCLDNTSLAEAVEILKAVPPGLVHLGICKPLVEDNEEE
Sequence of Inadl_4, Q8NI35 (Q8NI35 547-651): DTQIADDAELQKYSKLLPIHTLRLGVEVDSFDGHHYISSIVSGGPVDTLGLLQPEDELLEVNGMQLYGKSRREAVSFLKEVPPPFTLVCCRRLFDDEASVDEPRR
Sequence of IL16_4, Q14005 (Q14005 1229-1329): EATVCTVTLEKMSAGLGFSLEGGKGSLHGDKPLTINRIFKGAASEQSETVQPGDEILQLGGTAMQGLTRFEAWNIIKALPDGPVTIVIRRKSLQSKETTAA
Sequence of GORASP1, Q9BQQ3 (Q9BQQ3 1-208): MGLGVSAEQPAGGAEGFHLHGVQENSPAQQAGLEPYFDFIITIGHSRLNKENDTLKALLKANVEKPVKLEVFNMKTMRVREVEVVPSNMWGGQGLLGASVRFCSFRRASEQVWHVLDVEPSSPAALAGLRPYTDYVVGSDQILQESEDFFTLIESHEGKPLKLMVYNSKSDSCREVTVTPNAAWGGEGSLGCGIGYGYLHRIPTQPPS

SMLNRRTTPV [CACNG4, Q9UBN1]
pKd [1]: below the threshold | pKd [2]: below the threshold | pKd [3]: below the threshold | pKd [4]: below the threshold | pKd [5]: 4.89 | pKd [6]: below the threshold | pKd [7]: below the threshold | pKd [8]: below the threshold | pKd [9]: 4.85 | pKd [10]: below the threshold | pKd [11]: 4.3 | pKd [12]: 4.35 | pKd [13]: below the threshold | pKd [14]: 4.36 | pKd [15]: 3.49 | pKd [16]: below the threshold | pKd [17]: 3.97 | pKd [18]: 4.29 | pKd [19]: below the threshold | pKd [20]: below the threshold | pKd [21]: below the threshold | pKd [22]: 5.03 | pKd [23]: below the threshold | pKd [24]: below the threshold | pKd [25]: 4.51 | pKd [26]: below the threshold | pKd [27]: below the threshold | pKd [28]: below the threshold | pKd [29]: below the threshold | pKd [30]: below the threshold | pKd [31]: below the threshold | pKd [32]: 4.98 | pKd [33]: 4.88

LSEFKAMDSF [CTNNA2, P26232]
pKd [1]: below the threshold | pKd [2]: below the threshold | pKd [3]: below the threshold | pKd [4]: below the threshold | pKd [5]: 3.72 | pKd [6]: below the threshold | pKd [7]: below the threshold | pKd [8]: below the threshold | pKd [9]: below the threshold | pKd [10]: below the threshold | pKd [11]: 4.13 | pKd [12]: below the threshold | pKd [13]: below the threshold | pKd [14]: below the threshold | pKd [15]: below the threshold | pKd [16]: below the threshold | pKd [17]: below the threshold | pKd [18]: below the threshold | pKd [19]: below the threshold | pKd [20]: below the threshold | pKd [21]: below the threshold | pKd [22]: below the threshold | pKd [23]: below the threshold | pKd [24]: below the threshold | pKd [25]: below the threshold | pKd [26]: below the threshold | pKd [27]: below the threshold | pKd [28]: below the threshold | pKd [29]: below the threshold | pKd [30]: below the threshold | pKd [31]: below the threshold | pKd [32]: below the threshold | pKd [33]: below the threshold

EEDTAEKDEL [HSPA5, P11021]
pKd [1]: below the threshold | pKd [2]: 3.51 | pKd [3]: below the threshold | pKd [4]: below the threshold | pKd [5]: below the threshold | pKd [6]: 3.56 | pKd [7]: below the threshold | pKd [8]: 3.51 | pKd [9]: below the threshold | pKd [10]: below the threshold | pKd [11]: 3.94 | pKd [12]: below the threshold | pKd [13]: 3.68 | pKd [14]: below the threshold | pKd [15]: below the threshold | pKd [16]: below the threshold | pKd [17]: 4.05 | pKd [18]: below the threshold | pKd [19]: 3.87 | pKd [20]: below the threshold | pKd [21]: below the threshold | pKd [22]: 3.48 | pKd [23]: below the threshold | pKd [24]: below the threshold | pKd [25]: below the threshold | pKd [26]: below the threshold | pKd [27]: 3.7 | pKd [28]: below the threshold | pKd [29]: below the threshold | pKd [30]: below the threshold | pKd [31]: below the threshold | pKd [32]: below the threshold | pKd [33]: 3.5

PELESKESVL [SLC1A4, P43007]
pKd [1]: below the threshold | pKd [2]: below the threshold | pKd [3]: below the threshold | pKd [4]: below the threshold | pKd [5]: below the threshold | pKd [6]: below the threshold | pKd [7]: 4.28 | pKd [8]: below the threshold | pKd [9]: below the threshold | pKd [10]: below the threshold | pKd [11]: 3.87 | pKd [12]: 4.46 | pKd [13]: below the threshold | pKd [14]: 4.41 | pKd [15]: 3.55 | pKd [16]: 3.74 | pKd [17]: 4.07 | pKd [18]: below the threshold | pKd [19]: below the threshold | pKd [20]: below the threshold | pKd [21]: below the threshold | pKd [22]: below the threshold | pKd [23]: 4.02 | pKd [24]: below the threshold | pKd [25]: 3.79 | pKd [26]: 3.59 | pKd [27]: 3.85 | pKd [28]: below the threshold | pKd [29]: below the threshold | pKd [30]: below the threshold | pKd [31]: below the threshold | pKd [32]: 4.04 | pKd [33]: 3.91
